# According to US20250346890A1, “LEUKEMIA TREATMENT” (Deutsches Krebsforschungszentrum, priority 2019, published 2025):
# Tests used:
# BMP4 signaling = test: BRE reporter assay in HEPG2 cells stimulated by BMP4; assay type: cell-based, human
# Method: BRE luciferase assays were executed using 300,000 ml^−1 of HEPG2 cells in 24-well plates. PGL3-BRE-Luciferase (500 ng ml^−1) and pRL-TK-Renilla plasmids (50 ng ml^−1) were transfected using Lipofectamine 3000. After 24 hours, cells were serum starved 2 hours and stimulated 14-16 hours with 80 ng ml^−1 recombinant human BMP4 protein (R&D systems 314-BP) along with AP tagged RSPO1-4 or flag tagged RSPO1-3 conditioned medium. Luciferase activity was measured with the Dual luciferase reporter assay system (Promega E1960). Firefly luminescence (BRE) was normalized to Renilla. TOPFlash luciferase assays were carried out as previously described (Berger et al. (2017), EMBO Rep 18, 712-725, doi: 10.15252/embr.201643585). […] Statistical analyses were made with the PRISM7 software using unpaired t-test or one-way ANOVA test. Not significant (ns) P>0.05, *P<0.05, **P<0.01, ***P<0.001, and ****P<0.0001.
# Smad1 = test: Western blot of pSmad1 and tSmad1 in HEPG2 cells; assay type: cell-based, human
# Method: Cultured cells were rinsed with cold PBS and lysed in Triton lysis buffer ([…] Tris-Cl, pH 7.5, 1% Triton X-100, 150 mM NaCl, 1 mM EDTA, 1 mM EGTA, 1 mM β-glycerophosphate, 1 mM Na3 VO4) or RIPA buffer with complete Protease Inhibitor Cocktail (Roche 11697498001). Lysates were mixed with Laemmli buffer with β-mercaptoethanol and boiled at 95° C. for 5 min to prepare SDS-PAGE samples. Western blot images were acquired with SuperSignal West pico ECL (ThermoFisher 34580) or Clarity Western ECL (Biorad 1705061) using LAS-3000 system (FujiFilm). Quantification of blots was done using ImageJ software.
# ID1 = test: qRT-PCR analysis of ID1 in HEPG2 cells; assay type: cell-based, human; settings: BMP4
# Method: (§1) Cultured cells were lysed in Macherey-Nagel RAI buffer containing 1% β-mercaptoethanol and total RNAs were isolated using NucleoSpin RNA isolation kit (Macherey-Nagel 740955). Reverse transcription and PCR amplification were performed. Primers used in this study are listed in Supplementary Table 1. Graphs show relative gene expressions to GAPDH. […] Statistical analyses were performed using PRISM7 software with unpaired t-test or one-way ANOVA test.
# ALK3 = molecular target: T1, ALK3 (Homo sapiens, UniProt P36894); test: Cell surface binding assay in HEK293T cells transfected with ALK3
# T1 construct: expressed in transfected cells; host or cells: HEK293T
# Method: Cell surface binding assays were carried essentially out as previously described (Dosch et al. (1997), Development 124, 2325-2334). In brief, human ALK3-HA and Xenopus tropicalis LGR4 DNA were transfected in HEK293T cells, and incubated with 1.5 U ml^−1 conditioned media for 3 hours on ice. After several washes and crosslinking, cells were treated with 2 mM Levamisole for 20 min to inactivate endogenous AP activities and developed with BM-Purple (Sigma 11442074001). Cells were mounted with Fluoromount G. Images were obtained using LEICA DMIL microscope/Canon DS126311 camera.
# THP-1 cells = test: Monocyte-macrophage differentiation of THP-1 cells (FACS / qRT-PCR of CD14, CD11B); assay type: cell-based, human; settings: THP-1 cells, co-treatment of ATRA with RSPO2
# Method: as §1
# For analyzing macrophage differentiation of THP-1, cells were harvested, pelleted and resuspended in ice-cold blocking buffer (PBS supplemented with 1% BSA and 0.1% NaN3). Cells were treated with Fc Receptor Binding Inhibitor as recommended by the manufacturer (eBioscience 14916173) and stained directly with FITC/APC-conjugated antibodies diluted in blocking buffer or with non-conjugated primary antibodies followed by fluorochrome-labeled secondary antibodies. Isotype-matched antibodies were used as controls. Dead cells were excluded by counterstaining with propidium iodide. For analyzing apoptosis of THP-1, cells were fixed in 4% PFA, permeabilized by MeOH and blocked with PBS supplemented with 1% BSA and 0.1% Tween-20. Cells were stained with anti-active Caspase-3 antibody and fluorochrome-labeled secondary antibody. FACS Samples were analyzed with FACSCalibur or FACSCanto (BD Biosciences). 10,000 events per samples were acquired, and results were processed with Cell Quest or FACSDiva software (BD Biosciences). For BMP4 stimulation, cells were treated with 5 and 25 ng ml^−1 recombinant human BMP4 protein (R&D systems 314-BP). 100, 300 and 1000 nM LDN […] (Tocris 6053) were used for rescue assay. For the THP-1 cell number quantification and differentiation validation in vivo, bone marrow cells were harvested from tibias of NSG mice and red blood cells were removed by ACK Lysing Buffer (Gibco A1049201). Cells were stained and analyzed as above. Here, 50,000 PI-negative events per samples were acquired.
# THP-1 cells were treated with 0.3, 1.0 and 3.0 μg ml^−1 goat polyclonal anti-RSPO2 antibodies (R&D systems AF3266) or goat polyclonal GFP antibodies (ABIN 100085). After 48 hours, medium was replaced including fresh antibodies—and incubated another 24 hours. Western blot analysis and FACS analyses were performed as discussed above.
# The sequences of shRSPO2 and shControl (Table 1) were synthesized, inserted into the transfer plasmid Tet-pLKO-puro (Addgene 21915) and validated by sequencing. Lentivirus was produced with the 3rd generation lentiviral system according to the protocol available at the Trono lab as described (www.epfl.ch/labs/tronolab/). THP-1 cells were infected with lentivirus with 8 μg ml^−1 Polybrene (Sigma TR-1003) and selected with 0.5 μg ml^−1 puromycin (Calbiochem 540411). Single cell clones were obtained by limiting dilutions. The shRNA expression of clones was validated by monitoring RSPO2 expression after doxycycline treatment (1.0 μg ml^−1) for 3 days.
# T1 sequence (P36894 24-532): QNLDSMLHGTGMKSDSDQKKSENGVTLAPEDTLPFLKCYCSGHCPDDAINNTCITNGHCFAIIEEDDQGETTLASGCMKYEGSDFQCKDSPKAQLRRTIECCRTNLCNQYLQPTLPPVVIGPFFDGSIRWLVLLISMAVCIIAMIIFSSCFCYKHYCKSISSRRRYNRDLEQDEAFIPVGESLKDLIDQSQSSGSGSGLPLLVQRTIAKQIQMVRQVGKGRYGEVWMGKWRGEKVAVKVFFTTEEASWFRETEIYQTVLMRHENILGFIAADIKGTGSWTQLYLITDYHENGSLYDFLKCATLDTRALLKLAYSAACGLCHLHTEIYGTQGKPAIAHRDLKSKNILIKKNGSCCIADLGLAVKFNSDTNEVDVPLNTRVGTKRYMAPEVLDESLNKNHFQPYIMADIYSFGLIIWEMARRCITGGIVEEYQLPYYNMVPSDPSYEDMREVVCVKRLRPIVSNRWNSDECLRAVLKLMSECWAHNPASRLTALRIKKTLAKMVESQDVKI
molecule,measurement,setting,value
"RSPO2: human R-spondin 2 protein (SEQ ID NO:1); conditioned medium or recombinant (Peprotech 120-43) (protein, listed as Homo sapiens) MQFRLFSFALIILNCMDYSHCQGNRWRRSKRASYVSNPICKGCLSCSKDNGCSRCQQKLFFFLRREGMRQYGECLHSCPSGYYGHRAPDMNRCARCRIENCDSCFSKDFCTKCKVGFYLHRGRCFDECPDGFAPLEETMECVEGCEVGHWSEWGTCSRNNRTCGFKWGLETRTRQIVKKPVKDTILCPTIAESRRCKMTMRHCPGGKRTPKAKEKRNKKKKRKLIERAQEQHSVFLATDRANQ",BMP4 signaling,"BMP4 signaling; HEPG2 cells, BMP4 stimulation, treatment with RSPO protein",decreased BMP4 signaling
same,inhibition of BMP signaling by RSPO2 after knockdown of WNT pathway components,"BMP4 signaling; siRNA knockdown of β-catenin, LGR4/5, LRP5/6, DVL1/2/3 and ROR1/2",remained unaffected
same,phosphorylation of Smad1,Smad1,decreased phosphorylation of Smad1
same,expression of ID1,ID1,decreased
same,ALK3 binding,ALK3,required the TSP1—but not the FU domains
same,"ATRA-induced Smad1-phosphorylation, ID1 and CD11B expression",THP-1 cells,reverted these effects
